From patent publication US8283439B2, “Recombinant fragments and synthetic peptides of 17-kDa polypeptide useful in detecting Bartonella henselae” (Medical Diagnostic Laboratories L.L.C., priority 2008, dated 2012)

Experiments:
[1] = test system: antibodies against Bartonella henselae in IFA sero-positive patient sera (IgG); experiment: IgG ELISA with recombinant 17-kDa protein or Fragment 3 as coating antigen; format: binding, human
Experimental: In the ELISA assay, purified Fragment 3 protein was diluted in coating buffer to a final concentration of 250 ng/ml. Antigen was adhered to 96-well plate by applying 100 μl this solution per well and incubated at 4° C. for 18 hours. Uncoated antigen was removed by washing the plate three times with PBST wash buffer. After washing, post-coating was done with 300 μl blocking reagent General Blocker BB1 in each well for 1 hour at 22° C. Primary polyclonal antibody from 100 μl serum in 1:100 sample dilution buffer each well was allowed to react with coated antigen for 1 hour at 22° C. After five wash steps with PBST wash buffer, each well was incubated with […] peroxidase conjugated goat anti-human IgG (KPL, 1:20,000 from 1 mg/ml stock in sample dilute buffer) for 30 minutes at 22° C. The excess amount of secondary antibody was also removed by five wash steps with PBST wash buffer. The reaction were visualized by adding 100 μl substrate 3,3′5,5′-Tetramethylbenzidine solution and incubated at 22° C. for 15 minutes. The reaction was terminated by adding 100 μl 0.5 M H2SO4 per well before taking OD450nm measurement. Receiver operating characteristic curve (ROC) analysis was calculated with associated 95% confidence interval using a binomial distribution with the MedCalc program.
In this series of studies, a panel containing 12 IFA positive serum samples and 6 IFA negative serum samples was evaluated by ELISA using the respective antigen as the coating antigen. FIG. 15 presents the results of this ELISA analysis. […] Neither antigen bound antibody in sample #3508.
To further characterize the comparative abilities of recombinant Fragment 3 and the full length protein to bind antibodies to Bartonella henselae, a broader panel of 47 serum samples (27 IFA positive serum samples and 20 IFA negative serum samples) was analyzed by ELISA. The raw data was analyzed with ROC curve comparison in statistic software MedCalc.
A panel of 47 human sera was used in an IgG ELISA to evaluate the sensitivity and specificity for Fragment 3 mutants. The raw data was analyzed by interactive dot diagram assay (FIGS. 31 and 32).
Purified protein was diluted in coating buffer to a final concentration 250 ng/ml. Antigen was adhered to 96-well plate by applying 100 μl above prepared solution per well and incubate at 4° C. for 18 hours. We removed uncoated antigen by washing plate three times with PBST wash buffer. After washing, post-coating was done with 300 μl blocking reagent General Blocker BB1 each well for 1 hour at 22° C. Then primary polyclonal antibody from 100 μl serum in 1:100 sample dilution buffer each well was allowed to react with coated antigen for 1 hour at 22° C. After five times washing with PBST wash buffer, we incubated each well with 100 μl peroxidase conjugated goat anti-human IgG (KPL, 1:20,000 from 1 mg/ml stock in sample dilute buffer) for 30 minutes at 22° C. The excess amount of secondary antibody was also removed by five times washing with PBST wash buffer. The reaction were visualized by adding 100 μl substrate 3,3′5,5′-Tetramethylbenzidine Solution and incubated at 22° C. for 15 minutes. In the end, we terminated reaction with 100 μl 0.5 M H2SO4 per well before taking OD450nm measurement. Receiver operating characteristic curve (ROC) analysis was calculated with associated 95% confidence interval using a binomial distribution with MedCalc program.

[2] = test system: IgM in IFA-positive patient sera; experiment: IgM Capture ELISA with biotinylated recombinant 17-kDa full-length protein; format: binding, human; set-up: AUC (ROC analysis of the calibrated slopes): unit not given beside the values; conditions: IFA-positive (n=13) and IFA-negative (n=34) patient samples
Experimental: For the IgM Capture assay, purified recombinant 17-kDa full-length protein (1 mg/ml) was biotinylated using the Sulfo-NHS Biotin kit (Pierce, Rockford Ill.). MaxiSorp 96 well plates (Nunc, Rochester N.Y.) were coated with anti-human IgM (KPL, Gaithersburg, Md.) at a concentration of 1 μg/ml in coating buffer (0.015 M Na2CO3, 0.035 M NaHCO3 [pH 9.6]) and incubated overnight at 4° C. The plates were washed with PBS-Tween 20 and blocked with 1% bovine serum albumin (BSA) at room temperature. IgM positive and negative patient sera were used. The sera were diluted 1:100 in 1% BSA with 0.05% Tween 20, prior to being run in duplicate, and reacted with the plates for 1 hr at room temperature.
Biotinylated recombinant 17-kDa protein was added to the plates at 1 μg/ml in dilution buffer and incubated at room temperature for 1 h with shaking. Streptavidin-HRP (Southern Biotech, Birmingham Ala.) was used to detect the plates followed by development with 3,3′,5,5′-Tetramethylbenzidine (TMB) (Moss, Pasadena, Md.) for 30 minutes. The reaction was stopped with 2M HCl and the absorbance at 450 nm was recorded after a period of 5-30 minutes.
Receiver operating characteristic (ROC) curve analysis was used to evaluate the performance of the IgM Capture method. ROC plots can be used to compare all tests, even when tests have quite different cutoff values. The study of area under the curve (AUC), which evaluates the probabilities of (1-Specificity) and Sensitivity, is an important statistical feature of such curves (i.e., for samples with Sensitivity=Specificity=100%, AUC would be 1.0).

B1: 17-kDa Full Length: recombinant full-length 17-kDa (virB5) protein of Bartonella henselae strain Houston-1, aa 1-148; biotinylated in the IgM assay (protein, listed as Bartonella henselae)
chain: MKKYSLVTLLSLFCISHAKAQTATLTDEYYKKALENTQKLDVAKSQTAESIYESATQTANKIKDINNQLANLKADTKTKPEQLQALQIELTLLQAQLQADTLKIQSLAMIQAKDTKTKEELREEQTQKKHEDLQKQLKEKLEKSDVQL
modifications: biotinylated in IgM assay
notes: recombinant full-length 17-kDa (virB5) protein of Bartonella henselae strain Houston-1, aa 1-148; biotinylated in the IgM assay
For B1, the “area under ROC curve (AUC)” value ([1]; IgG ELISA, panel of 47 serum samples (27 IFA positive, 20 IFA negative), MedCalc ROC) was 0.853, the “reaction with IFA negative serum samples” value ([1]; panel of 12 IFA positive and 6 IFA negative serum samples) was “Neither antigen reacted with any of the IFA negative serum samples” and the “AUC (ROC analysis of the calibrated slopes)” value [2] was 0.998. For the same molecule, the sensitivity [2] was 100% and the specificity [2] was 97.1%.
